The nature of this series: soluble on expression in E. coli; label from the status in PepcDB or PDB records.
As for “SHKLPSGPPMHHFNSRYSETGCVGMQIRDAHEENPESILDEHVQRVMKTPGCQSPGTGRHSPKSRSPDGH”, the “soluble on expression in E. coli” value is listed as “soluble”.

Take “MQCCVQLVPFWDTSGVSTMFDYQVSKHPHFDEACRAFALRHNLVQLAERAGMNVQILRNKLNPAQPHLLTAPEIWLLTDLTEDSTLVDGFLAQIHCLPCVPINEVAKEKLPHYVMSATAEIGRVAAGAVSGDVKTSAGRRDAISSINSVTRLMALAAVSLQARLQANPAMASAVDTVTGLGASFGLL”: the “soluble on expression in E. coli” value is “not soluble”.

In the case of “FRELTEREEAVRESHQRISTILESITDAFFSLDHSWRFTYLNGEAERLLGRTRDDLLGKSIWEEFAAAVGTRFDVEYRRAVASGTTATFEEYYPPLACWFEVHAYPSRDGLSVFFQDIT”, the “soluble on expression in E. coli” value is “not soluble”.

In the case of “MGGSHHHHHHGMASALQRVSGLLSWTLSRVLWLSGLSEPGAARQPRIMEEKALEVYDLIRTIRDPEKPNTLEELEVVSESCVEVQEINEEEYLVIIRFTPTVPHCSLATLIGLCLRVKLQRCLPFKHKLEIYISEGTHSTEEDINKQINDKERVAAAMENPNLREIVEQCVLEPD”, the “soluble on expression in E. coli” value is “not soluble”.

With “MLKINVKYQLKNTLIRINIDDTEPKIYAVRGPSGIGKTTVLNMIAGLRKADEAIIEVNGQLLTDTAKNVNVKIQQRRIGYLFQDYQLFPNMTVYKNITFMAEPSEHIDQLIQTLNIDHLMKQYPMTLSGGEAQRVALARALSTKPDLILLDEPFSSLDDTTKDESITLVKRIFNEWQIPIIFVTHSNYEAEQMAHEIITIG”, the “soluble on expression in E. coli” value was “not soluble”.

As for “SNAKSAVTAQSILEKADEIRFPQDSFQVNVAIRTAAPDHAEDLYRYQVLSKGNENSIVMITEPASERGQAILMKGRDLWVFMPSVSQPIRLSLSQRLTGQVANGDIARANFTGDYHPQLLRNESIDDEDYYVLELTGIDRSVTYQKVLLWVNQSNFRPYKAEFYSVSGRLLKTSRYENFDNILGEMRPTRIIMEDALKSGEVSVLDYSDMKLRDLPDKIFTKDYLKRLE”, the “soluble on expression in E. coli” value is reported as “soluble”.

Turning to “MCLARSISRRENYKPLKSKVMTKRNVGRPPKNERADHCCMVRFTDTEFARFLTLFEQSGLQNRAAFIKARVFNETFRVIKVDRSLLDYYQKLTTLYGQFRSVGVNYNQTVVALKSNFTEKKAFAMLTKLEKLTLELAIIGGEIVQLTRKFQEKWQHRQ”, the “soluble on expression in E. coli” value was “not soluble”.

Consider “MGSDKIHHHHHHMSDPIPAAPTDNGVPVSLRSSRGRGWHGFGASLLEIRAGTYRIPAAEHHRIGVHIGSPVRADCVCDGARVSRIQAHGDVDVIPAGLPGEWTDSADCRILHIALSDTFVRRTFDQLELKPSQAQIRRRLQVRDPRLQHIAWAMAAELEAEDASDPLYAESLCTALVARLADSQPAFREHRRTLAPKAAARVIDYVEANLERRMTLAELAALVSISVPHFKVLFRETLGMPVHQYVVRRRVERAKALLLEGRLGISQIALEAGFAHQSHMAHWMNRVLGATPTEIARSGARGGLRLAYDGEDR”, for which the “soluble on expression in E. coli” value is on record as “not soluble”.

Turning to “KDWEKVVYGFATLYICSFVLDQVVNSARQSVQFFIISNKYEEIGRHINEYPHRGVTIINATGFYTGREVKMMFVLAKKRESTIIFRLIKDIDPNAFVSQSAVIGVYGEGFDHIKVK”, the “soluble on expression in E. coli” value was “not soluble”.

Regarding “GPGSMFLSLANKLVVSRQRGSSCERMAQPKERASISSEELVVWKAAERVRKGASLPLSRVARCIASATKLLKVETKVVERVCGDTIVFGPIRGHAADFANILLTKVLPNRCVRNIVFLGNYIDGAHQSLGVLFLIAALIVCSRFHIVPLIGKHEMMYPILSETFGSLRNEMLLCCTRRRQPLEQYESIMKEFFSVLPIACVVENKFFCVAGGPSSKFRTLKEIELITMTQEASNEFVLNEPMDEDEERIADRSAFVASQGTELAFRYTFNAACNFLSRNKLAMLIVGMEYHMSLPDYDSFARPNHYKESIYFPGYMLGRIHPESQLPAVLSIFSAPSFCGVNRNNACIAEIAGNRLVVQELGVYAKRPLVTPGTQDHAFSWAQPMLERAVVAIARDIIRGVIKEDAATDDDAHRKRLEEVAVSKMRRMCMLLRTHNIPFPDVPKLTFR”, the “soluble on expression in E. coli” value is listed as “not soluble”.

In the case of “RNKVKYIELLGKELEILKGGDLNYQITIRGNDELAALAGEMDSMRRAIRSRQEEEELAHLANRGIVTAMSHDLRTPLTALMGYLDILSIEEDPGKKQKYLSVCRDKACQIKSLSDKLFEYFLVYSSDQDELHADEVNGAEFVGQIVEESLFDLENEGIEVARRAGEITCRLLVDVDLMRRVFGNLFSNILKYADRSHAVQAEYGETKDELVIRLRNSVAADASERESSNIGLKTCETILKRHGGTFLYQKDAGMFEAEVRIPCIRE”, the “soluble on expression in E. coli” value is “not soluble”.

Turning to “SAAALRVAAVGARLSVLASGLRAAVRSLCSQATSVNERIENKRRTALLGGGQRRIDAQHKRGKLTARERISLLLDPGSFVESDMFVEHRCADFGMAADKNKFPGDSVVTGRGRINGRLVYVFSQDFTVFGGSLSGAHAQKICKIMDQAITVGAPVIGLNDSGGARIQEGVESLAGYADIFLRNVTASGVIPQISLIMGPCAGGAVYSPALTDFTFMVKDTSYLFITGPDVVKSVTNEDVTQEELGGAKTHTTMSGVAHRAFENDVDALCNLRDFFNYLPLSSQDPAPVRECHDPSDRLVPELDTIVPLESTKAYNMVDIIHSVVDEREFFEIMPNYAKNIIVGFARMNGRTVGIVGNQPKVASGCLDINSSVKGARFVRFCDAFNIPLITFVDVPGFLPGTAQEYGGIIRHGAKLLYAFAEATVPKVTVITRKAYGGAYDVMSSKHLCGDTNYAWPTAEIAVMGAKGAVEIIFKGHENVEAAQAEYIEKFANPFPAAVRGFVDDIIQPSSTRARICCDLDVLASKKVQRPWRKHANIPL”, the “soluble on expression in E. coli” value was “soluble”.

Consider “MGSDKIHHHHHHMNTAAIYRQYQTYVRSDKSGWALDGCSDSALIAQAKQPGLHLKMCINRFDSGITLSRMRGGGTGAFPTEIHNFSHNCALFVMVSGQNRLQMGGREYRPSAGEIWLVRGELADVSETLLPDSGGMCALHLDFSLEKLRRWHDEGLLDERLFSPQTIGRFALQRLAQNAGTLTAAACPLLQRPFESDGFGLLADEADALELSARLLRFTFRRHDNGYRRRRIDEAADILNSEFARPLTIAEIARRVGLNECYLKRYFKAQTGETVAGRLRRLRLEHALALIESGSTIQAAMHFCGYRHAGRFNEAFRRHYGFLPSDVKKC”, for which the “soluble on expression in E. coli” value is “not soluble”.

Regarding “MRDVHSISAMNLRDVLSIPEVKQGQVIGKKIPATLGEDGMNVLGEPIKAKPGREFVLRPGKNSTVDEANGTLVAAVDGQMSVDKRTIHVYPVYEVPGDLTMKHGNISFIGNVIIRGHVPDGFVVKAGGDIRVFGTVEGATLEAGGSIFVGAGIVGQNRGCIRAEGGLHTTFINQAKVEVGGDIEVVQSILHSTCTAGGKIICTRGKGNIVGGALSAEDHIYAKEIGNSMHTKTSLYIGAKEKWVTKEKQLAKEYKTTEEELKKLSLLLQKFQELEKENGLTANGRVQRLRVKNTLVQVKEKHEQIKEQLEDVQENLTLNQAGSIVVEQTLYPNVSAHFGKYRRKIVSNHSNVKLSLVDQEIQLSSRLEHHHHHH”, the “soluble on expression in E. coli” value was “not soluble”.

As to “MSLAILIKNRIGKGYPIYTSTVLNEKLSDEGNLTFDILENENTYDLISAVSKMWTVHNVAGPDDKRVFVITIIDRQSRGEKQYVSITARQKEIDDLMTQRIYSNVTGSFTVENYFKIVFQGSGYKYKIPIKVPSSRWENAGDGDSRYEMFKNGLERYDLEYTYDPSNKTFTLEPFVEKKTSYYISSKVNANNLKLEEDASECYTYIRGYGGFEEDESFMQGSVQVEFTHPLAKVIGKREAPPKIDGRITNIETMKREIEAIIAQSLKTSLSLDFVALREVFPSAVPRIGDLVPVRDDIIDINDSVRIIEIKTTRDAHNKIIKQDVVLGDIRRRDRYTKSVNNAATLASGLGGGSEGHHHHHH”, the “soluble on expression in E. coli” value was “soluble”.

For the sequence “MGSDKIHHHHHHMGRRGLMTETTYYVNGTEVYVAEIPSNQSTETFFLIHGFVSSTYSYRKLMPLLAKRGRVISVDLPGFGRSGKGRTFTYSFQCYAELMVALMRKLNVSKVTFVGHSMGGQVALYVAKWKPHLVKRLVLLSSSGYLQRVKRPFYFLSYIPFLRQMVKWYVQRQDVTKALQQVVYNKGIVNNEAVEMYRLPLADETFYDALLCLMRQREGDLPKEELRKIHHPVLLLWGEQDRVIPVKIGQRLASDLPNASLIVYKNTGHLLPEERPKEIMKAIDRFIRKRRQFSFFS”, the “soluble on expression in E. coli” value is reported as “not soluble”.

Turning to “MYQTKITGNRLYHTVSKGYGDSVTLFGKTDQGETPMSLLVIALSSCVTMCVQGFYHRQFQQDTLAVSVEASYEEEVFELLVRIDDVLDDKKKADLLAYIGTYCRVKQLLKPEVTVTITLEGLSHV”, the “soluble on expression in E. coli” value is “not soluble”.

With “MEINIFNTNKKYDVIYADPPWRYNDRKCNGACEHHYDTMTLEEIKKLPIKELCEKDCVLFLWTTYPMLKEALEVMEAWGFKYKSIAFQWIKLNRSGNGKFFGLGRWTRGNTEPCLLAVKGKPSRKSNSVSQLIEYPLGKHSAKPPITRDKIKELMGEECKCLELFARNNIEGWDCWGNEVGKMDEVILEHHHHHH”, the “soluble on expression in E. coli” value is recorded as “soluble”.

As to “MGSDKIHHHHHHMKRFLFSFLFGLVLLSGCDFEHEIIEILDMIVSEDQSTDVVAPPTSGEATITFFDVGQGDSTLIRSENYTVLVDTGRHDSDAIFTHLEKQQIDQIDLLILTHPHADHIGNADEIVRLYSPEEVWIDGNEATSKTFENVIDALLDSEAEVVEPRAGDVYERGDFLFEIVNPTKLTGDLNNDSIAFRLTYGDVRVVMTGDAEEAAEQEMVASGTDLEADIFKVAHHGSSTSNQPFFLDEIEPTVAIYSAGEDNSYGHPHREVTSLLNERGIDIFGTDIHGTVLITTDGHTYSIQTEH”, the “soluble on expression in E. coli” value is on record as “not soluble”.

“MPMSSLPAAILSHMTAINNVPPPPLHSIPNLKKSKHINYGQLNALCHIRGQHSRSMSNILSAHDTFMKQYPKVFLHQKPRLPKLFKQEEQRELNEGKEESQHQQPDDSNNIAVHVQRAHGGHILYRPKRATEKFEEFLAILKKLPIHRTPYEHKTVWKFLKTIPDLTFQLNDKHLKTLSKTVFSETWLKGSTVVANDGFYVILKGLARPQTNVYKNLIEGSDSPDSFISQSFHSFIWSEEFKNSTLAEMYLPSYDSMLSKWSTFGTLEVMPQNESETQMFSVVTEDDCEILKIPAKGYAKIKEEKIKLENMQKLKLIRMCPYYEEWPTLSIYELIALLKWKKFPPGHVIVESGNIISFVGYINSGCCNIYRSIIGFVKLRSNKVKRSQKLVYMGKLKEKESFGEISVLLQVPFTCTIITKKEVEMAIIEDKDLFVA”: the “soluble on expression in E. coli” value was “soluble”.

In the case of “MASKITQPDKYSGFLNNYSDLKETTSATGKPVLRWVDPSFDQSKYDSIVWNPITYYPVPKPSTQVGQKVLDKILNYTNTEMKEAIAQRKPLVTTAGPRSLIFRGAITGVDTSKEGLQFYEVVPVALVVAGTQMATGHRTMDTRLYFEGELIDAATNKPVIKVVRQGEGKDLNNESTPMAFENIKQVIDDMATDATMFDVNKKLEHHHHHH”, the “soluble on expression in E. coli” value is “soluble”.

As to “MANEKQYPMTKEGKEKLEQELEYLKTVKRKEVVERIKIARGFGDLSENSEYDAAKDEQAFVESRIQMLENMIRNAVIIEEDKENPDVVSLGKSVTFIELPDGEEETYTIVGSAEADPFEGKISNDSPIAKSLLGRRVGDEVTVQTPGGEMLVKIVAVK”, the “soluble on expression in E. coli” value is “soluble”.

Source of the values: the DeepSol protein solubility set.
